# Biological target: Hfq (Escherichia coli) (UniProt P0A6X3)
# Test: competition
# Conditions: 10 nM (so in the source) Tris-HCl pH 8.0, 1 mM DTT, 1 mM MgCl2, 20 mM KCl, 10 mM Na phosphate pH 8.0, 12.5 ug/mL yeast tRNA; 15 min at 37 C; native 5% PAGE in 1X TBE …
# Chain of Hfq (Escherichia coli) (P0A6X3 whole entry): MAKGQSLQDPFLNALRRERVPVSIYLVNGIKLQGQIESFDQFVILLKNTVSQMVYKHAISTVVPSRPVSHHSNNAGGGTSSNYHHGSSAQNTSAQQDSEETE
sequence,measurement,value
GGACACCGUCGCUUAAAGUGACGGCAUAAUAAUAAAAAAAUGAAAUUCCUCUUUGACGGGCCAAUAGCGAUAUUGGCCAUUUUUUU [ChiX sRNA],binding,binds
